Experiments:
[1] = target: RSV IN S262R (recombinant) (Rous sarcoma virus (Prague A)); assay: not stated; CSC assembly with recombinant IN mutants (Supplementary Fig. 11)
[2] = target: RSV IN 1–278 (Rous sarcoma virus integrase, C-terminal truncation of 8 amino acids) (Rous sarcoma virus (Prague A)); assay: cryo-EM structure
[3] = target: RSV IN 1–278 (Rous sarcoma virus integrase, C-terminal truncation of 8 amino acids) (Rous sarcoma virus (Prague A)); assay: SEC

| Substance | stoichiometry N [1] | stoichiometry N [2] | stoichiometry N [3] |
| --- | --- | --- | --- |
| RSV IN S262R (recombinant) (enzyme) | 8 |  |  |
| RSV IN 1–278 (Rous sarcoma virus integrase, C-terminal truncation of 8 amino acids) (domain or fragment) |  | 8 | 8 |
